Experiments:
[1] = molecular target: Trypanosoma cruzi phosphofructokinase (T. cruzi (strain CL Brener)); assay: SEC; preparative gel filtration of IMAC eluate on HiPrep Sephacryl S-200 16/60; 20 mM TEA, 5 mM MgCl2, 50 mM KCl, 10% glycerol, pH 7.4; tetrameric fractions collected
[2] = molecular target: the molecule itself; assay: as above
[3] = molecular target: the molecule itself; assay: SEC; preparative size exclusion of IMAC eluate on HiPrep Sephacryl S300 16/600; 50 mM TEA, 500 mM KCl, 5 mM MgCl2, 1 mM TCEP, 1 mM ATP/F6P, 10% glycerol, pH 7.4; fractions corresponding to the tetramer (340 kDa) pooled
[4] = molecular target: the molecule itself; assay: SEC; preparative size exclusion of IMAC eluate on Superose 6 10/300; 50 mM TEA, 500 mM KCl, 5 mM MgCl2, 1 mM TCEP, 1 mM ATP/F6P, 10% glycerol, pH 8; fractions corresponding to the tetramer (340 kDa) pooled

Q: For “Trypanosoma cruzi phosphofructokinase (enzyme)”, which stoichiometry N [1] is on record?
A: 4

B1: Trypanosoma brucei phosphofructokinase (enzyme, T. b. brucei (strain Lister 427), UniProt O15648 1-487, looked up)
chain: MAVESRSRVTSKLVKAHRAMLNSVTQEDLKVDRLPGADYPNPSKKYSSRTEFRDKTDYIMYNPRPRDEPSSENPVSVSPLLCELAAARSRIHFNPTETTIGIVTCGGICPGLNDVIRSITLTGINVYNVKRVIGFRFGYWGLSKKGSQTAIELHRGRVTNIHHYGGTILGSSRGPQDPKEMVDTLERLGVNILFTVGGDGTQRGALVISQEAKRRGVDISVFGVPKTIDNDLSFSHRTFGFQTAVEKAVQAIRAAYAEAVSANYGVGVVKLMGRDSGFIAAQAAVASAQANICLVPENPISEQEVMSLLERRFCHSRSCVIIVAEGFGQDWGRGSGGYDASGNKKLIDIGVILTEKVKAFLKANKSRYPDSTVKYIDPSYMIRACPPSANDALFCATLATLAVHEAMAGATGCIIAMRHNNYILVPIKVATSVRRVLDLRGQLWRQVREITVDLGSDVRLARKLEIRRELEAINRNRDRLHEELAKL
notes: ATP-dependent phosphofructokinase of Trypanosoma brucei brucei, DNA source strain Lister 427, codon optimised for E. coli; Tag removal was only partially successful; the tagged protein was used for all experiments; also called TbPFK; T. brucei PFK; source: E. coli C41 (DE3), pET28a, purified (cobalt IMAC, Sephacryl S-200 gel filtration); not shown: His6, N-terminal, kept
Q: With B1 as the molecule, how does the “stoichiometry N” value [2] read?
A: 4

B2: human phosphofructokinase isoform PFK-M (enzyme, UniProt P08237 1-780, looked up)
chain: MTHEEHHAAKTLGIGKAIAVLTSGGDAQGMNAAVRAVVRVGIFTGARVFFVHEGYQGLVDGGDHIKEATWESVSMMLQLGGTVIGSARCKDFREREGRLRAAYNLVKRGITNLCVIGGDGSLTGADTFRSEWSDLLSDLQKAGKITDEEATKSSYLNIVGLVGSIDNDFCGTDMTIGTDSALHRIMEIVDAITTTAQSHQRTFVLEVMGRHCGYLALVTSLSCGADWVFIPECPPDDDWEEHLCRRLSETRTRGSRLNIIIVAEGAIDKNGKPITSEDIKNLVVKRLGYDTRVTVLGHVQRGGTPSAFDRILGSRMGVEAVMALLEGTPDTPACVVSLSGNQAVRLPLMECVQVTKDVTKAMDEKKFDEALKLRGRSFMNNWEVYKLLAHVRPPVSKSGSHTVAVMNVGAPAAGMNAAVRSTVRIGLIQGNRVLVVHDGFEGLAKGQIEEAGWSYVGGWTGQGGSKLGTKRTLPKKSFEQISANITKFNIQGLVIIGGFEAYTGGLELMEGRKQFDELCIPFVVIPATVSNNVPGSDFSVGADTALNTICTTCDRIKQSAAGTKRRVFIIETMGGYCGYLATMAGLAAGADAAYIFEEPFTIRDLQANVEHLVQKMKTTVKRGLVLRNEKCNENYTTDFIFNLYSEEGKGIFDSRKNVLGHMQQGGSPTPFDRNFATKMGAKAMNWMSGKIKESYRNGRIFANTPDSGCVLGMRKRALVFQPVAELKDQTDFEHRIPKEQWWLKLRPILKILAKYEIDLDTSDHAHLEHITRKRSGEAAV
notes: human ATP-dependent phosphofructokinase, muscle type (PFK-M1), yeast codon optimised cDNA; also called PFK-M1; source: PFK-deficient Saccharomyces cerevisiae, plasmid pJJH71, purified (nickel IMAC, Sephacryl S300 size exclusion)
Q: B2 was tested. Which “stoichiometry N” value [3] did it give?
A: 4

B3: human phosphofructokinase isoform PFK-L (enzyme, UniProt P17858 1-780, looked up)
chain: MAAVDLEKLRASGAGKAIGVLTSGGDAQGMNAAVRAVTRMGIYVGAKVFLIYEGYEGLVEGGENIKQANWLSVSNIIQLGGTIIGSARCKAFTTREGRRAAAYNLVQHGITNLCVIGGDGSLTGANIFRSEWGSLLEELVAEGKISETTARTYSHLNIAGLVGSIDNDFCGTDMTIGTDSALHRIMEVIDAITTTAQSHQRTFVLEVMGRHCGYLALVSALASGADWLFIPEAPPEDGWENFMCERLGETRSRGSRLNIIIIAEGAIDRNGKPISSSYVKDLVVQRLGFDTRVTVLGHVQRGGTPSAFDRILSSKMGMEAVMALLEATPDTPACVVTLSGNQSVRLPLMECVQMTKEVQKAMDDKRFDEATQLRGGSFENNWNIYKLLAHQKPPKEKSNFSLAILNVGAPAAGMNAAVRSAVRTGISHGHTVYVVHDGFEGLAKGQVQEVGWHDVAGWLGRGGSMLGTKRTLPKGQLESIVENIRIYGIHALLVVGGFEAYEGVLQLVEARGRYEELCIVMCVIPATISNNVPGTDFSLGSDTAVNAAMESCDRIKQSASGTKRRVFIVETMGGYCGYLATVTGIAVGADAAYVFEDPFNIHDLKVNVEHMTEKMKTDIQRGLVLRNEKCHDYYTTEFLYNLYSSEGKGVFDCRTNVLGHLQQGGAPTPFDRNYGTKLGVKAMLWLSEKLREVYRKGRVFANAPDSACVIGLKKKAVAFSPVTELKKDTDFEHRMPREQWWLSLRLMLKMLAQYRISMAAYVSGELEHVTRRTLSMDKGF
notes: human ATP-dependent phosphofructokinase, liver type (PFK-L1), yeast codon optimised cDNA; also called PFK-L1; source: PFK-deficient Saccharomyces cerevisiae, plasmid pJJH71, purified (nickel IMAC, Superose 6 size exclusion)
Q: Which “stoichiometry N” value [4] does the source give for B3 here?
A: 4

B4: human phosphofructokinase isoform PFK-P (enzyme, UniProt Q01813 1-784, looked up)
chain: MDADDSRAPKGSLRKFLEHLSGAGKAIGVLTSGGDAQGMNAAVRAVVRMGIYVGAKVYFIYEGYQGMVDGGSNIAEADWESVSSILQVGGTIIGSARCQAFRTREGRLKAACNLLQRGITNLCVIGGDGSLTGANLFRKEWSGLLEELARNGQIDKEAVQKYAYLNVVGMVGSIDNDFCGTDMTIGTDSALHRIIEVVDAIMTTAQSHQRTFVLEVMGRHCGYLALVSALACGADWVFLPESPPEEGWEEQMCVKLSENRARKKRLNIIIVAEGAIDTQNKPITSEKIKELVVTQLGYDTRVTILGHVQRGGTPSAFDRILASRMGVEAVIALLEATPDTPACVVSLNGNHAVRLPLMECVQMTQDVQKAMDERRFQDAVRLRGRSFAGNLNTYKRLAIKLPDDQIPKTNCNVAVINVGAPAAGMNAAVRSAVRVGIADGHRMLAIYDGFDGFAKGQIKEIGWTDVGGWTGQGGSILGTKRVLPGKYLEEIATQMRTHSINALLIIGGFEAYLGLLELSAAREKHEEFCVPMVMVPATVSNNVPGSDFSIGADTALNTITDTCDRIKQSASGTKRRVFIIETMGGYCGYLANMGGLAAGADAAYIFEEPFDIRDLQSNVEHLTEKMKTTIQRGLVLRNESCSENYTTDFIYQLYSEEGKGVFDCRKNVLGHMQQGGAPSPFDRNFGTKISARAMEWITAKLKEARGRGKKFTTDDSICVLGISKRNVIFQPVAELKKQTDFEHRIPKEQWWLKLRPLMKILAKYKASYDVSDSGQLEHVQPWSV
notes: human ATP-dependent phosphofructokinase, platelet type (PFK-P1), yeast codon optimised cDNA; also called PFK-P1; source: PFK-deficient Saccharomyces cerevisiae, plasmid pJJH71, purified (nickel IMAC, Superose 6 size exclusion)
Q: B4 was tested. Which “stoichiometry N” value [4] did it give?
A: 4
